Experimental data from paper PMC12193089, “Genome-Wide Identification, Plasma Membrane Localization, and Functional Validation of the SUT Gene Family in Yam (Dioscorea cayennensis subsp. rotundata)” (International Journal of Molecular Sciences, 2025).

Substrate: OC[C@H]1O[C@@](CO)(O[C@H]2O[C@H](CO)[C@@H](O)[C@H](O)[C@H]2O)[C@@H](O)[C@@H]1O
Test: cells, lysate or membranes
Type: cell-based, Dioscorea cayenensis
Conditions: PBS pH 5.5, 30 °C, labelled compound, methods print a final sucrose concentration of 100 mM, at odds with a μM Km

B1: DrSUT1 (Dioscorea cayenensis subsp. rotundata) (protein)
chain: MDAVSIRVPYRNLKEAELELEMGHLNGDPSGEIHDLGSRPSGGLPPSFPSASPSSPDEYGSSDASHRSQPRSSMKTLVLSCIVAAGVQFGWALQLSLLTPYIQTLGIEHAFSSFIWLCGPITGFIVQPCVGIWSDKCTLKLGRRRPFILAGSLMISFAVILIGFAADIGYLLGDTDQDCRSYKGPRWRAAAIFVIGFWMLDLANNTVQGPARALLADLSGPDQCNSANAIFCSWMALGNILGFSSGANGNWHRWFPFLTTKACCEACGNLKAAFLVAVIFLMFCTFVTLYFAKEVPLEAKPTQQFSDGAPLLNDKQQHGHRGSPTNSPKLENGEKLSVDLMADKASSRNPSNFDRNAKNDEMEALSDGPGAVLVKLLTSLRHLPPGMYSVLLVMALTWSSWFPFFLFDTDWMGREVYRGDPSGTESEIGSYQKGVRDGAFGLLLNSVVLLVASFLIDPICRRMGARMVWAMSNFIVFICMAATTIISLWSINEHLTGIQHVVGANKAVRVGALVIFSLLGFPLAITYSVPFSVTAELTADSGGGQGLATGVLNLAIVIPQMVVALGAGPWDALFGGGNIPAFALASAFALAASFLAFKRLPTLSGSYSSVGFHGFG
notes: no tag told
With B1 the Km was 76.69 µM.
